Paper PMC5723990, “Calmodulin regulates Cav3 T-type channels at their gating brake” (The Journal of Biological Chemistry, 2017)
Where two headings read alike, the source gives them in different places. No end group written: not given here.

Tests used:
[1] = Aggregation of peptides in buffers; type: physicochemical; details: observation during CD (PBS: 10 mM sodium phosphate pH 7.3, 137 mM NaCl) and ITC sample preparation
Experimental: CD measurements were performed using a Jasco-715 spectropolarimeter (Jasco Instruments, Easton, MD), using the following parameters: 250–190-nm range, 50 nm/min speed, with 1-s response time, 1-nm bandwidth, and 100-millidegree sensitivity at room temperature. 16–25 accumulations were gathered depending on signal quality. Recordings were made in a 1-mm cuvette, in 10 mM sodium phosphate buffer with 0.1 mM added CaCl2, and used as baseline, which was subtracted from each recording. For CaM and CaMB peptide spectra, the same solution of 10 μM CaM was scanned before stock (1 mM) peptide was added in incremental amounts before being scanned again. The resulting spectra were subtracted (e.g. CaM and CaMB peptide-CaM alone) to extract the spectrum corresponding to the change associated with adding the peptide. Every recording was an average of at least 16 accumulations and subsequently corrected for protein concentration (converted to units of mean residue ellipticity). These were smoothed and exported into ASCII format for analysis with Excel and either SOMCD or Dichroweb K2d algorithm (http://dichroweb.cryst.bbk.ac.uk)^6 ([92], [93]). […]
(§1) Heat gain or heat requirements in the sample cell (for exothermic binding or endothermic binding, respectively) correspond to the direction of the injection peaks measured in the isothermal titration calorimeter (MicroCal iTC200, Malvern Instruments, UK). […]

Ca^2+–CaM = experiment: Gel mobility-shift assay with CaM; type: binding, rat; details: molar ratio of CaMB peptide to CaM for saturating gel-mobility shift; native PAGE, 0.1 mM CaCl2, ratios 0.5–4×, incubated ≥1 h at 4 °C; three replicate experiments
Experimental: (§2) We followed protocols that we have described previously in an analysis of CaM binding with snail or human L-type calcium channel peptides in the presence of 0.1 or 0.5 mM CaCl2-containing solution ([9]).
(§3) Rat CaM was purified using phenyl-Sepharose 6 Fast-Flow (High Sub) (GE Healthcare), packed to ∼10 ml volume, by gravity flow at 4 °C. Codon-optimized CaM was cloned in pET9d, a T7 Escherichia coli expression vector. CaM was transformed into BL21 DE3 E. coli and grown at 37 °C and 200 rpm to OD of 0.4–0.6 (for Luria Broth, LB) or 0.5–0.9 (for SuperBroth, SB), at which point samples were induced by 1 mM added isopropyl β-D-1-thiogalactopyranoside and grown for another 4 (for SB) to 6 (for LB) h. Robust expression of soluble CaM was confirmed by SDS-PAGE. Cells were collected by centrifugation at ∼4000 × g, then lysed in high-salt buffer (0.1 M Tris-Cl, pH 7.5, 0.5 M NaCl, 0.5 M ammonium sulfate, 1 mM DTT) using an Avestin Emulsiflex homogenizer at 15,000–20,000 p.s.i. with jacketed water cooling, through which the cells were passed ∼3× on average. The cell lysate was clarified by centrifugation at 20,000 rpm in an SS-34 rotor (∼50,000 × g) at 4 °C for 30 min. To the cleared lysate, CaCl2 was added to a final concentration of 10 mM. The lysate was then applied to the gravity phenyl-Sepharose column equilibrated with the same high salt buffer (and 1 mM CaCl2). […]

[2] = molecular target: T1, Ca^2+–CaM (wild-type calmodulin) (Rattus norvegicus, UniProt P0DP29); experiment: Isothermal titration calorimetry of CaMB peptides with wild-type CaM; details: ITC, one-set-of-sites fit, 25 °C, 10 mM HEPES pH 7.0, 0.1 mM CaCl2 (b23 says 0.5 mM CaCl2), mean of n = 3 (Fig. 6A), read-out: Binding affinity (Ka)
T1 construct: His tag; made in house; host or cells: E. coli BL21 DE3 (pET9d)
Experimental: as §2
as §3, with “average.” for “average. The cell lysate was clarified by centrifugation at 20,000 rpm in an SS-34 rotor (∼50,000 × g) at 4 °C for 30 min. To the cleared lysate, CaCl2 was added to a final concentration of 10 mM. The lysate was then applied to the gravity phenyl-Sepharose column equilibrated with the same high salt buffer (and 1 mM CaCl2).”
as §1

[3] = molecular target: T2, C-CaM (C-lobe of CaM, 74-aa construct) (Homo sapiens, UniProt P0DP23); experiment: Isothermal titration calorimetry with C-lobe of CaM; details: ITC, one-set-of-sites fit, 25 °C, 10 mM HEPES pH 7.0, 0.1 mM CaCl2, mean of n = 3 (Fig. 6A), read-out: Binding affinity (Ka)
T2 construct: partial CaMs: N-CaM(1–74), C-CaM(75–148); His tag; made in house; host or cells: bacteria (E. coli)
Source text: (§4) We have used human CaM and associated CaM mutants that we have described before ([9]), CaM(1–44) and partial CaMs: N-CaM(1–74), C-CaM(75–148), and CaMs that simulate CaM binding in the absence of calcium, by substitution of glutamate residues in the two calcium-binding sites in the N-terminal lobe (CaM12) or C-terminal lobe (CaM34), or mutation of all four calcium-binding sites (CaM1234) of CaM. CaM–GFP used for Western blotting is a construct consisting of GFP fused to the C terminus of CaM expressed in pcDNA3.1 (Cell Signaling Technology) ([83]). EGFP expression vector was obtained by subcloning EGFP from pEGFP-C1 (BD Biosciences) into the multiple cloning site of pcDNA3.1. The CaM1234 overexpression construct contained bicistronic marker mRFP (to generate a red color) ([46]) to distinguish from the channel expression with bicistronic EGFP (to generate a green color). The CaM1234 overexpression construct also containing CaM shRNA knockdown includes two short hairpin sequences described above to knock down CaM (Calm1,2,3 genes) ([46][–][48]). […]
as §1

[4] = molecular target: T3, N-CaM (N-lobe of CaM, 74-aa construct) (Homo sapiens, UniProt P0DP23); experiment: Isothermal titration calorimetry with N-lobe of CaM; details: ITC, one-set-of-sites fit, 25 °C, 10 mM HEPES pH 7.0, 0.1 mM CaCl2, mean of n = 3 (Fig. 6A), read-out: Binding affinity (Ka)
T3 construct: partial CaMs: N-CaM(1–74), C-CaM(75–148); His tag; made in house; host or cells: bacteria (E. coli)
Source text: as §4, §1

[5] = molecular target: calmodulin (CaM), wild type, bacterially expressed (rat) (UniProt P0DP29); experiment: ITC; 10 mM HEPES pH 7.0, 0.1 mM CaCl2 (results: 0.5 mM CaCl2), 25 °C, one-set-of-sites model, mean of three replicates
[6] = molecular target: calmodulin (CaM), wild type, bacterially expressed (rat) (UniProt P0DP29); experiment: native gel or EMSA; gel-mobility shift of CaM with 0.5–4× molar ratios of peptide; native gels with 4 M urea, 0.1 mM CaCl2 in running buffer; incubation ≥1 h at 4 °C in 150 mM NaCl, 50 mM Tris-Cl pH 7.5, 1 mM CaCl2
[7] = molecular target: calmodulin (CaM), wild type, bacterially expressed (rat) (UniProt P0DP29); experiment: ITC; 10 mM HEPES pH 7.0, 0.1 mM CaCl2 (results: 0.5 mM CaCl2), 25 °C, one-set-of-sites model, mean of three replicates; remark: listed apart in the source
[8] = molecular target: CaM_(1234), CaM with all four Ca^2+-binding sites mutated (human) (UniProt P0DP23); experiment: as above
[9] = molecular target: C-CaM(75–148), C-terminal lobe of CaM (human) (UniProt P0DP23); experiment: as above

Substance: YEEIFQYVCHILRKAKRRALGLYQAL [Cav3.3]
- aggregation [1]: severe aggregation issues in PBS
- [CaMB Peptide] for Complete shift (Ca^2+–CaM): > 4.0 x

Substance: YEELLKYLVYILRKAARRLAQVSRAA [Cav3.1]
- aggregation [1]: severe aggregation issues in PBS
- [CaMB Peptide] for Complete shift (Ca^2+–CaM): 1.5 x

Substance: YEELLKYVGHIFRKVKRRSLRLYARW [Cav3.2]
- Kd [2]: 187 nM
- Kd [3]: 691 nM
- Kd [4]: 31.1 nM

Substance: YSELLKLVAQVYRRVKRKVIKTYYKT [LCav3]
- Kd [2]: 12.4 nM

Substance: human Cav3.1 CaMB peptide (26-mer gating brake peptide)
- Kd [5]: 36 nM
- CaMB peptide to CaM ratio required for a saturating gel-mobility shift (× (peptide to CaM ratio)) [6]: 1.5
- Kd [7]: 42.7 nM
- stoichiometry N [7]: 1
- Kd [8]: 543 nM

Substance: human Cav3.2 CaMB peptide (26-mer gating brake peptide)
- Kd [5]: 196 nM
- CaMB peptide to CaM ratio required for a saturating gel-mobility shift (× (peptide to CaM ratio)) [6]: 1.5
- Kd [9]: 690 nM
- stoichiometry N [7]: 1

Substance: human Cav3.3 CaMB peptide (26-mer gating brake peptide)
- CaMB peptide to CaM ratio required for a saturating gel-mobility shift (× (peptide to CaM ratio)) [6]: > 4
- Kd [7]: 383 nM
- stoichiometry N [7]: 1

Substance: snail LCav3 CaMB peptide (26-mer gating brake peptide)
- Kd [5]: 10 nM
- CaMB peptide to CaM ratio required for a saturating gel-mobility shift (× (peptide to CaM ratio)) [6]: 1
- stoichiometry N [7]: 1
- fold reduced affinity compared with wild-type CaM [8]: 349 fold
